PMC3953389, “Dimerization of VirD2 Binding Protein Is Essential for Agrobacterium Induced Tumor Formation in Plants” (PLoS Pathogens, 2014)

Legend:
[1] = target: T1, VBP (VirD2-binding protein) (Agrobacterium fabrum, UniProt Q7CW19); test: isothermal titration calorimetry
T1 construct: gene Atu4856; full-length VBP with 6His tag (pET32a, E. coli BL21(DE3)); homodimer 75 kDa; predicted NT domain aa 10-133, HEPN domain aa 159-279

[2] = target: C-terminal (HEPN) domain of VBP (Agrobacterium tumefaciens C58); test: AUC; sedimentation velocity, 1 mg/ml, 40,000 rpm, 24°C, absorbance at 280 nm, Sedfit
[3] = target: C-terminal (HEPN) domain of VBP (Agrobacterium tumefaciens C58); test: SEC; size-exclusion chromatography of the purified protein, apparent mass against molecular weight standards; 200 mM NaCl buffers (VBP: 20 mM Tris-HCl pH 8.0, 5% glycerol; HEPN: 30 mM CHES pH 9.0, 5% glycerol; NT: 30 mM Tris-HCl pH 7.5)
[4] = target: VirD2-binding protein (VBP), full-length, wild type, 6His-tagged (Agrobacterium tumefaciens C58); test: AUC; sedimentation velocity, 1 mg/ml, 40,000 rpm, 24°C, absorbance at 280 nm, Sedfit
[5] = target: VirD2-binding protein (VBP), full-length, wild type, 6His-tagged (Agrobacterium tumefaciens C58); test: SEC; size-exclusion chromatography of the purified protein, apparent mass against molecular weight standards; 200 mM NaCl buffers (VBP: 20 mM Tris-HCl pH 8.0, 5% glycerol; HEPN: 30 mM CHES pH 9.0, 5% glycerol; NT: 30 mM Tris-HCl pH 7.5)

Compound: Nc1ncnc2c1ncn2[C@@H]1O[C@H](COP(=O)(O)OP(=O)(O)NP(=O)(O)O)[C@@H](O)[C@H]1O [AMPPNP]
- Kd [1]: 2 µM

Compound: C-terminal (HEPN) domain of VBP (domain or fragment)
- stoichiometry N [2]: 2
- stoichiometry N [3]: 2

Compound: VirD2-binding protein (VBP), full-length, wild type, 6His-tagged (natural protein)
- stoichiometry N [4]: 2
- stoichiometry N [5]: 2
